Results: the nanobody polyreactivity screen of Harvey et al. (2022)

Assay: yeast display, Sf9 membrane polyspecificity reagent, FACS + sequencing; frameworks hold sequencing errors
Outline: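 Nanobodies came from a synthetic yeast display library in Saccharomyces cerevisiae BJ5465, induced with galactose for 36–48 hours and stained for 1 hour at 4 °C with 10% biotinylated, detergent-solubilized Sf9 membrane reagent. Cells were enriched on streptavidin microbeads and then FACS-sorted, with low and high (top ~1%) gates set on anti-HA fluorescence for expression and streptavidin fluorescence for reagent binding. Each polyreactivity label reflects the gate a clone came from. Genes were amplified by colony PCR, sequenced by MiSeq 2 × 250 and filtered by CDR length.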

Sequence | polyreactivity (PSR sort gate)
QVQLVESGGGLVQAGGSLRLSCAASGRIFPTNAMGWSRQAPGKERELVASITRSGSTYYADSVKGRFTISRDHAKNTVYLQMNSLKPEDTAVYYCAGYAYIFLDWGGYPYYLYEYDYWGQGTQVTVSS | low polyreactivity
QVQLVESGGGLVQAGGSLRLSCAASGRIFPTNAMGWYRQAPGKERVFVAAITWGGGSTYYAVSVKGRFTISRDNAKNTVYLQMNSLKPEDTAVYYCAATGHIVFFRSYDYGYWGQGTQVTVSS | low polyreactivity
QVQLVESGGGLVQAGGSLRLSCAASGRIFPTYAMGWYRQAPGKERELFAGITSGGRTNYADSVKGRFTISRDNAKNTVYLQMNSLKPEDTAVYYCAKRVWPRDQYGKRNPRMDYWGQGTQVTVSS | high polyreactivity
QVQLVESGGGLVQAGGSLRLSCAASGRIFPTYAMGWYRQAPGKERELVAAITWRGGRTYYADSEKGRFTISRDYAKNTVYLQMNSLKPEDTAVYYCAAGWLTRSYEYDYWGQGTQVTVSS | high polyreactivity
QVQLVESGGGLVQAGGSLRLSCAASGRIFPTYAMGWYRQAPGKERELVAGITSGGRTNYADSVKGRFTISRDNAKNTVYLQMNSLKQEDTAVYYCDKRVWPRDQYGKRNPRMDYWGQGTQVTVSS | high polyreactivity
QVQLVESGGGLVQAGGSLRLSCAASGRIFPTYAMVWYRQAPGKDRELVASISWSGGRTYYADSVKGRFSISRDNAKITVFLQMNSLKPEDTAVYYCAKRTYQGEGTVKRRYDYWGQVTQVTVSS | low polyreactivity
QVQLVESGGGLVQAGGSLRLSCAASGRIFPTYTMGWYRQAPGKERELVAGISYSGTSTSYADSVKGRFTISRDNAKNTVYLQMNSLKPEDTAVYYCAAKYYGRSFYYGYDYWGQGTQVTVSS | low polyreactivity
QVQLVESGGGLVQAGGSLRLSCAASGRIFPVNAMGWYRQAPGTERELVATISSGDITNYAHSVKGRFTISRDNAKNTVYLQMNSLKPEDTAVYYCAADYTWRAWTYYGIKYNYWGQGTQVTVSS | low polyreactivity
QVQLVESGGGLVQAGGSLRLSCAASGRIFPVYTMGWYRQAPGKERELVAAITSSGGSTYYADSVKGRFTISRDNAKNTVYLQMNSLKPEDTAVYYCAKRAGWAYYYWGQGTQVTVSS | high polyreactivity
QVQLVESGGGLVQAGGSLRLSCAASGRIFPWNTMGWYRQAPGKERELVAGITSCGSTNYADSVKGRFTISRDNAKNTVYLQMNSLKPEDTAVYSCAARGYYWYISGVYEYEYWGQGTQVTVSS | low polyreactivity
QVQLVESGGGLVQAGGSLRLSCAASGRIFPWYAMGWYRQAPGKERALVAAINWRAGRTYYADSVKGRFTISRDNAKNTVYLQMNSLKPEDTAVYYCAAETYSSGEWYDYWGQGTQVTVSS | high polyreactivity
QVQLVESGGGLVQAGGSLRLSCAASGRIFPWYAMGWYRQAPGKERELVATITRGTSTNYADSVKGRFTISRDNAKNTVYLQMNSLKPEDTAVYYCAASSSRRRYYYWGQGTQVTVSS | high polyreactivity
QVQLVESGGGLVQAGGSLRLSCAASGRIFPYYAMGWYRQAPGKERELVAAISYRGTRTSYADSVKGRFTISRDNAKNTVYLQMNSLKPEDTAVYYCAAQRYFGISWPYDYWGQGTQVTVSS | high polyreactivity
QVQLVESGGGLVQAGGSLRLSCAASGRIFPYYAMGWYRQAPGKERELVAAITQGGGRTYYADSVKGRFTISRDNAKNTVYLQMNSLKPEDTAVYYCAKRFTIRALLLRWADYDYWGQGTQVTVSS | low polyreactivity
QVQLVESGGGLVQAGGSLRLSCAASGRIFPYYAMGWYRQAPGKERELVATIRGRVGTTYYADSVKGRFTISRDNAKNSVYLEMNSLKPEDTAVYYCNTDNYSPYRYVGLYDYWGQGTQVTVSS | high polyreactivity
QVQLVESGGGLVQAGGSLRLSCAASGRIFPYYAMGWYRQAPGKERELVATISGGGSTDYADSVKGRFTISRDNAKNTVYLQMNSLKPEDTAVYYFAKKLRGWHTIITDYDYWGQGTQVTVSS | low polyreactivity
QVQLVESGGGLVQAGGSLRLSCAASGRIFQHNTMGWYRQAPGKERDFVAAIRRSGGSTYYADSVKGRFTISRDNAKNTVYLQMNSLKPEDTAVYYCAARDYPTGTRRWGGGDSWGQGTEVTVSS | low polyreactivity
QVQLVESGGGLVQAGGSLRLSCAASGRIFQKNAMGWYRQAPGKERELVAAISGSGSTTNYADSVKGRFTISRDNAKNTVYLQLNSLTPEDTAVYYCATGKRGVSGRGFRYDYWGQGTQVTVSS | high polyreactivity
QVQLVESGGGLVQAGGSLRLSCAASGRIFQRYAMGWYRQAPGKERELVAAITTGGRTYYADSVKGRFTISRDNAKNTVYLQMNSLKPEDTAVYYCAARFVGSRYRFDYWGQGTQVTVSS | high polyreactivity
QVQLVESGGGLVQAGGSLRLSCAASGRIFQYNPMGWYIQAPGKERELVADITWIGGSTYADSVKGRFTISRDTAKNTVYLQMNSLKPEDTAVYYCNARYIYRFDYWGQGSQVTVSS | low polyreactivity
QVQLVESGGGLVQAGGSLRLSCAASGRIFQYNVMGWYRQAPGKERELVAAISSGGNTYYADSVKGRFTISRDNAKNTVYLQMNSLKPEDTAVYYCAADHYVPWPNYDYDYWGQGTQVTVSS | low polyreactivity
QVQLVESGGGLVQAGGSLRLSCAASGRIFQYSAMGWYRQAPGKEREFVASITFRGGRTNYADSVKGRFTISRDNAKNTVYLQMNSLKPEDTAVYYCAVSLRRGGSGYAYDYWGQGTQVTVSS | high polyreactivity
QVQLVESGGGLVQAGGSLRLSCAASGRIFQYYAAMGWYRQAPGKERELVASIRATGGSTYYADSVKGRFTISRDNAKNTVYLQMNSLKPEDTAVYYCAARFAAKSLPAYDYWGQGTQVTVSS | low polyreactivity
QVQLVESGGGLVQAGGSLRLSCAASGRIFQYYDMGWYRQAPGKERELVAAITFSGGSTYYADSVKGRFTISRDNAKNTVYLQMNSLKPEDTAVYYCARGYWVYYPDGDYWGQGTQVTVSS | low polyreactivity
QVQLVESGGGLVQAGGSLRLSCAASGRIFQYYDMGWYRQAPGKERELVATITSGGSTNYADSVKGRFTISRDNAKNTVYLQMNSLKPEDTAVYYCAALAYTASDYQPYDATEYNYWGQGTQVTVSS | low polyreactivity
QVQLVESGGGLVQAGGSLRLSCAASGRIFRANAMGWSRQAPGKERELVAAISTSGGSTTYADSVKGRFTISRDNSKNTVYLQMNSLKPEDTAVYYCAVDSWLKWRDKWVIRHDYWGQGTQVTVSS | high polyreactivity
QVQLVESGGGLVQAGGSLRLSCAASGRIFRAYTMGWYRQAPGKERELVAAITWRGGRTYYADSVKGRFTISRDNAKNTVYLQMNSLKPEDTAVYYCAAVRKYRAMDYWGQGTQVTVSS | high polyreactivity
QVQLVESGGGLVQAGGSLRLSCAASGRIFRDNAMGWYRQAPGKERELVAAISRRGGSTYYADSVKGRFTISRDNAKNTVYLQMNSLKPEDTAVYYCNKTTQSRTFRYDYWGQGTQVTVSS | low polyreactivity
QVQLVESGGGLVQAGGSLRLSCAASGRIFRDYAMGWYRQAPGNERELVAAISWSGGSTYYADSVKGRFTISRDNAKNTVYLQMNSLKPEDTAVYYCAGDYYGGDSYRYDYWGQGTQVTVSS | low polyreactivity
QVQLVESGGGLVQAGGSLRLSCAASGRIFRDYSMGWYRQAPGKETELVATITWSGATTYYADSVKGRFTISRDNAKNTVYLQMNSLKPEDTAVYYCNTDTDVDVAFDSWGQGTQVTVSS | low polyreactivity
